Several values for one entry are separate records, joined by “and”; a condition that tells them apart may be missing. Equal values may be shown once.
How the values were obtained:
[1] = Average drug loading (DAR, drug to antibody ratio) from LC/MS of reduced, deglycosylated conjugates; details: conjugate with trastuzumab (TBS); average number of payload molecules per antibody
Description: The immunoconjugates prepared as described above were characterized by LC/MS, as illustrated in FIG. 1 for one immunoconjugate. […] The conjugates were characterized in terms of average drug loading for a sample (DAR, drug to antibody ratio) and aggregation (expressed in %).
The DAR value is extrapolated from LC-MS data for reduced and deglycosylated samples. […] HPLC separates the antibody into light and heavy chains, and separates the heavy chain (HC) and light chain (LC) according to the number of Linker-Payload groups per chain. Mass spectral data enables identification of the component species in the mixture, e.g., LC, LC+1, LC+2, HC, HC+1, HC+2, etc. From the average loading on the LC and HC chains, the average drug to antibody ratio (DAR) can be calculated for an ADC (see FIG. 1B). The DAR for a given conjugate sample represents the average number of drug (payload) molecules attached to a tetrameric antibody containing two light chains and two heavy chains.

[2] = Aggregation of immunoconjugates by analytical size exclusion chromatography; assay type: physicochemical; details: conjugate with trastuzumab (TBS); Superdex 200 5/150 GL run in PBS
Experimental: Aggregation was measured by analytical size exclusion chromatography (Superdex 200 5/150 GL run in PBS). It was observed that the extent of aggregation depends on the Linker-Payload and the DAR. […] Table 4 also indicates whether the linking group for each conjugate is stable or cleavable.

Row | Structure (SMILES) | DAR [1] | Aggregation % [2]
1 | C[C@H](O)C(=O)N(C[C@@H]1CNC[C@H]1O)[C@@H](c1nc(-c2cc(F)ccc2F)cn1Cc1ccccc1)C1CCOCC1 [Compound 48] | 4.4 and 5.2 | 63.8% and 35.3%
2 | CC(C)(C)[C@H](c1nc(-c2cc(F)ccc2F)nn1Cc1ccccc1)N(CCCN)C(=O)CO [Compound 50] | 2.8 | 40%
3 | CC(C)(C)[C@H](c1nc(-c2cc(F)ccc2F)cn1Cc1ccccc1)N(CC[C@@H](N)CF)C(=O)c1cccnc1 [Compound 51] | 5.6 | 56.5%
4 | C[C@@H]1CN(C(=O)N(CC[C@H](N)CF)[C@@H](c2nc(-c3cc(F)cc(F)c3)nn2Cc2ccccc2)C(C)(C)C)C[C@H](C)O1 [Compound 52] | 5.2 | 47.4%
5 | C[C@H](O)C(=O)N(C[C@H]1CNC[C@H]1F)[C@@H](c1nc(-c2cc(F)ccc2F)cn1Cc1ccccc1)C1CCOCC1 [Compound 53] | 2.7 | 25.7%
6 | COC(C)(C)[C@H](c1nc(-c2cc(F)ccc2F)cn1Cc1cccc(F)c1)N(C[C@@H]1CNC[C@@H]1F)C(=O)[C@H](C)O [Compound 54] | 3.1 | 2.5%
7 | CC(C)(C)[C@H](c1nc(-c2cc(F)ccc2F)cn1Cc1ccccc1)N(CC[C@H](N)CF)C(=O)CO[C@@H]1O[C@H](C(=O)O)[C@@H](O)[C@H](O)[C@H]1O [Compound 55] | 3.8 | 11.5%
8 | O=C(N1C[C@@H](O)[C@@H](O)C1)N(C[C@@H]1CNC[C@@H]1F)[C@@H](c1nc(-c2cc(F)ccc2F)cn1Cc1ccccc1)C1CCOCC1 [Compound 56] | 4.1 | 45.1%
9 | NCCCCCCSCC(=O)N(C[C@@H]1CNC[C@@H]1F)[C@@H](c1nc(-c2cc(F)ccc2F)cn1Cc1ccccc1)C1CCOCC1 [Compound 57] | 5 | 57%
10 | O=C(NCCO)N(C[C@@H]1CNC[C@@H]1F)[C@@H](c1nc(-c2cc(F)ccc2F)cn1Cc1ccccc1)C1CCOCC1 [Compound 58] | 5.3 | 59.4%
11 | COC(C)(C)[C@H](c1nc(-c2cc(Cl)ccc2F)cn1Cc1cccc(F)c1)N(C[C@@H]1CN[C@H](CF)C1)C(=O)c1cc(C)nn1C [Compound 59] | 5.2 | 71%
12 | COC[C@@H](N)CCN(C(=O)[C@H](C)O)[C@@H](c1nc(-c2cc(F)ccc2F)cn1Cc1ccccc1)C(C)(C)C [Compound 60] | 6.4 | 71.7%
13 | CC(C)(C)[C@H](c1nc(-c2cc(F)ccc2F)nn1Cc1ccccc1)N(CCCN)C(=O)N1CCOCC1 [Compound 61] | 2 | 46.1%
14 | C[C@H](O)C(=O)N(CC[C@H](N)CF)[C@@H](c1nc(-c2cc(F)cc(F)c2F)cn1Cc1ccccc1)C(C)(C)C [Compound 62] | 2 | 48.7%
15 | CC(C)(C)[C@H](c1nc(-c2cc(F)ccc2F)cn1Cc1ccccc1)N(CC[C@H]1COCCN1)C(=O)N1CCOCC1 [Compound 63] | 4 | 53.2%
16 | CC(C)(C)[C@H](c1nc(-c2cc(F)ccc2F)nn1Cc1ccccc1)N(CCCN)C(=O)c1cccnc1 [Compound 64] | 2.9 | 49.3%
17 | O=C(c1ccccn1)N(C[C@@H]1CN[C@H](CF)C1)[C@@H](c1nc(-c2cc(F)ccc2F)cn1Cc1ccccc1)C1CCOCC1 [Compound 65] | 3.2 | 11.4%
18 | C[C@H](O)C(=O)N(C[C@@H]1CNC[C@@H]1F)[C@@H](c1nc(-c2cc(F)ccc2F)cn1Cc1cccc(N)n1)C1CCOCC1 [Compound 66] | 3.6 | 64.5%
19 | CC(C)(C)[C@H](c1nc(-c2cc(F)ccc2F)cn1Cc1cccc(F)c1)N(C[C@@H]1CNC[C@@H]1F)C(=O)CCS [Compound 67] | 3.4 | 63.2%
20 | O=C(NC[C@@H](O)CO)N(C[C@@H]1CNC[C@@H]1F)[C@@H](c1nc(-c2cc(F)ccc2F)cn1Cc1ccccc1)C1CCOCC1 [Compound 68] | 4.6 | 62.6%
21 | O=C([C@H]1CNCCO1)N(C[C@@H]1CNC[C@@H]1F)[C@@H](c1nc(-c2cc(F)ccc2F)cn1Cc1ccccc1)C1CCOCC1 [Compound 69] | 6 | 4.9%
22 | O=C([C@@H]1CNCCO1)N(C[C@@H]1CNC[C@@H]1F)[C@@H](c1nc(-c2cc(F)ccc2F)cn1Cc1ccccc1)C1CCOCC1 [Compound 70] | 6.5 | 16.9%
23 | C[C@H](O)C(=O)N(CC[C@H](N)CF)[C@@H](c1nc(-c2cc(F)ccc2F)cn1Cc1ccccc1)C(C)(C)C [Compound 71] | 2.9 | 2.6%
24 | C[C@H](O)C(=O)N(C[C@@H]1CNC[C@@H]1F)[C@@H](c1nc(-c2cc(F)ccc2F)cn1Cc1ccccc1)C(C)(C)C [Compound 72] | 5.2 | 45%
25 | C[C@H](O)C(=O)N(CC[C@H](N)CF)[C@@H](c1nc(-c2cc(F)ccc2F)cn1Cc1cccc(F)c1)C(C)(C)C [Compound 73] | 4.5 | 60%
26 | O=C(NC[C@H](O)CO)N(C[C@@H]1CNC[C@@H]1F)[C@@H](c1nc(-c2cc(F)ccc2F)cn1Cc1ccccc1)C1CCOCC1 [Compound 74] | 3 | 39.1%
27 | CCOC(C)(C)[C@H](c1nc(-c2cc(F)ccc2F)cn1Cc1cccc(F)c1)N(C[C@@H]1CNC[C@@H]1F)C(=O)[C@H](C)O [Compound 75] | 2.9 | 69.4%
28 | CC(C)(C)[C@H](c1nc(-c2cc(F)ccc2F)cn1Cc1cccc(F)c1)N(C[C@@H]1CNC[C@@H]1F)C(=O)COCCN [Compound 76] | 3.1 | 48.5%

— patent publication US9498540B2, “Cell proliferation inhibitors and conjugates thereof” (NOVARTIS AG, priority 2013, dated 2016)
